± gives the standard deviation.
Assay: protein stability index of a GFP-peptide fusion (GPS, HEK-293T) (PSI 1-6); higher = more stable
Details: c terminus: a fixed tail appended
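Note: 24-mer peptide tiles fused after GFP, lentivirally expressed, FACS-sorted into six equal bins by GFP/DsRed ratio, decoded by Illumina sequencing, PSI is the read-weighted mean bin number.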

Sequence TPNSAGGPGAHILRRKSPASGQGP [ADAMTS4] has a protein stability index (treatment: DMSO) of 4.55 ± 0.15 and a protein stability index (treatment: MLN4924 1 uM, 8 h) of 4.93 ± 0.28.
TPTPVAAALDACSGNDPFAPSEGS [SNAP91] gave a protein stability index (treatment: DMSO) of 5.29 ± 0.32 and a protein stability index (treatment: MLN4924 1 uM, 8 h) of 5.47 ± 0.24.
For TQGQEKMMMMGPKEEEQSCEYETR [ZNF232], the protein stability index (treatment: DMSO) was 5.42 ± 0.38 and the protein stability index (treatment: MLN4924 1 uM, 8 h) was 5.59 ± 0.16.
For TQKLSHSTKPSGSPLEEKHDQCKC [MATN2], the protein stability index (treatment: DMSO) was 5.15 ± 0.38 and the protein stability index (treatment: MLN4924 1 uM, 8 h) was 4.94 ± 0.29.
Sequence TQLTQNAVSCPYLPSNLLKKFRSS [KCNA4] has a protein stability index (treatment: DMSO) of 3.32 ± 0.37 and a protein stability index (treatment: MLN4924 1 uM, 8 h) of 3.39 ± 0.2.
TREQLYQAIFHAVDQYLALPDVSL [MCOLN1] showed a protein stability index (treatment: DMSO) of 3.37 ± 0.54 and a protein stability index (treatment: MLN4924 1 uM, 8 h) of 2.67 ± 0.61.
Work on TRRSCIDESQISAEEAEDHGRIPD [FAM189A2] yielded a protein stability index (treatment: DMSO) of 5.5 ± 0.33 and a protein stability index (treatment: MLN4924 1 uM, 8 h) of 5.49 ± 0.15.
In the case of TRSCSSASSRSQQSSKRSSRSVED [CLK3], the protein stability index (treatment: DMSO) is reported as 5.047 ± 0.044 and the protein stability index (treatment: MLN4924 1 uM, 8 h) is reported as 5.02 ± 0.22.
Work on TRWCHIVRDSDSLAESEFESAAFS [PHTF1] yielded a protein stability index (treatment: DMSO) of 3.45 ± 0.054 and a protein stability index (treatment: MLN4924 1 uM, 8 h) of 3.33 ± 0.29.
Work on TSENLKLVHIVCHKKTTHKLNCDP [DFFB] yielded a protein stability index (treatment: DMSO) of 2.81 ± 0.19 and a protein stability index (treatment: MLN4924 1 uM, 8 h) of 2.97 ± 0.21.
TSIGMPSLMYRSPPGAEEPQAPPA [RETREG3] showed a protein stability index (treatment: DMSO) of 5.12 ± 0.12 and a protein stability index (treatment: MLN4924 1 uM, 8 h) of 4.92 ± 0.07.
TSQGQVRMRLFGQRCQKCSWSQYE [RTP4] showed a protein stability index (treatment: DMSO) of 2.4 ± 0.37 and a protein stability index (treatment: MLN4924 1 uM, 8 h) of 2.01 ± 0.39.
Sequence TSRRSGVGLAVVNGQLMAVGGFDG [KLHL20] has a protein stability index (treatment: DMSO) of 2.99 ± 0.23 and a protein stability index (treatment: MLN4924 1 uM, 8 h) of 2.94 ± 0.41.
Work on TSSNLGSQYQCENGVSGPSQDLLP [TBX5] yielded a protein stability index (treatment: DMSO) of 4.78 ± 0.16 and a protein stability index (treatment: MLN4924 1 uM, 8 h) of 4.6 ± 0.15.
For TSSTFGLQDGNLRAPHKESTLPRS [CHCHD6], the protein stability index (treatment: DMSO) was 4.42 ± 0.34 and the protein stability index (treatment: MLN4924 1 uM, 8 h) was 4.61 ± 0.14.
Work on TSTPPPASVINNMLAEIFCQTGGV [ZBED1] yielded a protein stability index (treatment: DMSO) of 2.84 ± 0.076 and a protein stability index (treatment: MLN4924 1 uM, 8 h) of 2.73 ± 0.23.
For TTARERPCVRPGVSGSPVTQNHAA [FBF1], the protein stability index (treatment: DMSO) was 4.33 ± 0.23 and the protein stability index (treatment: MLN4924 1 uM, 8 h) was 4.51 ± 0.3.
In the case of TTEVNAWLVHRDPEGSVSGSQPNS [NFE2L1], the protein stability index (treatment: DMSO) is reported as 4.33 ± 0.17 and the protein stability index (treatment: MLN4924 1 uM, 8 h) is reported as 4.64 ± 0.35.
For TTLDEFPLTRLGQLKACTNFDDIL [KCNG1], the protein stability index (treatment: DMSO) was 2.99 ± 0.26 and the protein stability index (treatment: MLN4924 1 uM, 8 h) was 2.92 ± 0.22.
For TTTHAPPGVHRRYSALREESAKDW [PPFIA4], the protein stability index (treatment: DMSO) was 4.23 ± 0.3 and the protein stability index (treatment: MLN4924 1 uM, 8 h) was 4.47 ± 0.15.
Work on TVDIQNPDITSSRYRGLPAPGPSP [WAS] yielded a protein stability index (treatment: DMSO) of 4.49 ± 0.24 and a protein stability index (treatment: MLN4924 1 uM, 8 h) of 4.7 ± 0.18.
TVNVQRTGQPLPQSIQQAMRYLRN [DLC1] showed a protein stability index (treatment: DMSO) of 3.17 ± 0.18 and a protein stability index (treatment: MLN4924 1 uM, 8 h) of 3.33 ± 0.23.
Sequence TVVSVRGFEESEPLTGFLTTVPDG [TNXB] has a protein stability index (treatment: DMSO) of 3.92 ± 0.25 and a protein stability index (treatment: MLN4924 1 uM, 8 h) of 3.78 ± 0.41.
With TWHHTKPLLPSDLRRTGCAALRIA [GAN] the protein stability index (treatment: DMSO) was 2.45 ± 0.33 and the protein stability index (treatment: MLN4924 1 uM, 8 h) was 2.48 ± 0.24.
In the case of TYWQCGQYLGVGPGAHGRFMPQGA [RSAD1], the protein stability index (treatment: DMSO) is reported as 2.27 ± 0.26 and the protein stability index (treatment: MLN4924 1 uM, 8 h) is reported as 2.65 ± 0.49.
With VAARTPAVEGLTEAEEEELRAELT [TPD52L2] the protein stability index (treatment: DMSO) was 5.56 ± 0.23 and the protein stability index (treatment: MLN4924 1 uM, 8 h) was 5.26 ± 0.26.
Work on VAAVLEAVAQTAHLPADSEVTLEA [RSAD1] yielded a protein stability index (treatment: DMSO) of 3.8 ± 0.17 and a protein stability index (treatment: MLN4924 1 uM, 8 h) of 3.94 ± 0.37.
In the case of VADIDGQYAMTRAQRVRAAMFPET [CTNNB1], the protein stability index (treatment: DMSO) is reported as 3.65 ± 0.25 and the protein stability index (treatment: MLN4924 1 uM, 8 h) is reported as 3.6 ± 0.24.
Sequence VADMMYFCQMLAVVETINAAIGVT [HACD3] has a protein stability index (treatment: DMSO) of 3.06 ± 0.42 and a protein stability index (treatment: MLN4924 1 uM, 8 h) of 3.2 ± 0.36.
In the case of VAFGIEADDESLLRTSNGQPVKTA [DNAAF3], the protein stability index (treatment: DMSO) is reported as 4.47 ± 0.23 and the protein stability index (treatment: MLN4924 1 uM, 8 h) is reported as 4.52 ± 0.16.
VAIAQKFAALRASLVAPLLLELAG [MYORG] gave a protein stability index (treatment: DMSO) of 2.9 ± 0.76 and a protein stability index (treatment: MLN4924 1 uM, 8 h) of 2.68 ± 1.1.
Sequence VAQLEDRRSTTDLRGTQFDYERGK [ZSWIM9] has a protein stability index (treatment: DMSO) of 5.03 ± 0.18 and a protein stability index (treatment: MLN4924 1 uM, 8 h) of 5.07 ± 0.24.
VARPVRFPREHQFFEDGDVQRHLY [ZNF511] gave a protein stability index (treatment: DMSO) of 3.31 ± 0.17 and a protein stability index (treatment: MLN4924 1 uM, 8 h) of 3.55 ± 0.38.
Work on VAVLKGEQEKEAQHKDQTAALPLA [MAP2] yielded a protein stability index (treatment: DMSO) of 5.28 ± 0.17 and a protein stability index (treatment: MLN4924 1 uM, 8 h) of 5.09 ± 0.27.
Work on VCLPRSEDDDCDDDDDDDAQILPS [DRICH1] yielded a protein stability index (treatment: DMSO) of 5.38 ± 0.22 and a protein stability index (treatment: MLN4924 1 uM, 8 h) of 5.14 ± 0.09.
With VDDKFGTGTKKVTRILDGGNPFLD [PSD2] the protein stability index (treatment: DMSO) was 4.18 ± 0.051 and the protein stability index (treatment: MLN4924 1 uM, 8 h) was 4.23 ± 0.25.
VDGRATQKLIVNLKPEKSYSFVLT [PTPRD] gave a protein stability index (treatment: DMSO) of 2.4 ± 0.51 and a protein stability index (treatment: MLN4924 1 uM, 8 h) of 2.37 ± 0.66.
With VDNIDMIDGDGDDMERFMEEMREL [BEX5] the protein stability index (treatment: DMSO) was 5.27 ± 0.41 and the protein stability index (treatment: MLN4924 1 uM, 8 h) was 5.26 ± 0.21.
Sequence VDWDEEYPPQMGEEYSQIIYSTKL [BTBD10] has a protein stability index (treatment: DMSO) of 3.49 ± 0.15 and a protein stability index (treatment: MLN4924 1 uM, 8 h) of 3.55 ± 0.41.
In the case of VEEVVYDLSIRGFNKETAAACVEK [TSN], the protein stability index (treatment: DMSO) is reported as 4.63 ± 0.22 and the protein stability index (treatment: MLN4924 1 uM, 8 h) is reported as 4.51 ± 0.56.
For VEGFRVTLVDEGDLYNWEVAIFGP [CDC34], the protein stability index (treatment: DMSO) was 3.11 ± 0.82 and the protein stability index (treatment: MLN4924 1 uM, 8 h) was 2.85 ± 0.95.
VEKLLREEAEGARWTSYRFSRVCR [TRIM35] gave a protein stability index (treatment: DMSO) of 2.89 ± 0.28 and a protein stability index (treatment: MLN4924 1 uM, 8 h) of 3.22 ± 0.2.
Sequence VGAAYASLRRRGASAAARLGCNRQ [TRIM14] has a protein stability index (treatment: DMSO) of 3.36 ± 0.17 and a protein stability index (treatment: MLN4924 1 uM, 8 h) of 4.09 ± 0.39.
VGTRQNEELPCTCPLCTSDRGSCV [RHOBTB3] gave a protein stability index (treatment: DMSO) of 4.77 ± 0.27 and a protein stability index (treatment: MLN4924 1 uM, 8 h) of 4.93 ± 0.12.
VGYGDMYPVTIGGKIVGSLCAIAG [KCNA1] gave a protein stability index (treatment: DMSO) of 2.09 ± 0.55 and a protein stability index (treatment: MLN4924 1 uM, 8 h) of 2.45 ± 0.28.

Source: the supplement of paper PMC10567573
